In article PMC6312923 (Life Science Alliance, 2018):

How the values were obtained:
Assay type in all cases: cell-based, human
[1] = test system: Cdt1 degradation, U2OS cells; assay: Cdt1 degradation after UV irradiation in U2OS cells; conditions: for Cdt1 degradation after UV: siCdt2 (3′ UTR), UV 20 J/m^2
Source text: Because the poly-ubiquitination activity of Cdt2^PIP-3A was reduced, we monitored the degradation of Cdt1 after UV irradiation. Asynchronously growing control U2OS cells and cells expressing Cdt2^WT or Cdt2^PIP-3A (Fig S7) were depleted of endogenous Cdt2 using an siRNA targeted to the 3′ UTR, and irradiated with UV.
Figure 7. The Cdt2 PIP box plays an important role for rapid Cdt1 degradation after UV irradiation. (A) U2OS cells and U2OS cells stably expressing Cdt2^WT-3FLAG or Cdt2^PIP-3A-3FLAG were transfected with siCdt2 targeted to the 3′ UTR or control siLuc for 48 h, irradiated with UV (+, 20 J/m^2) or not (−), and collected at the indicated time points (min) for Western blotting. (B) The protein levels were measured and the relative amounts of Cdt1, normalized to RCC1, after UV irradiation were shown, UV (−) level set as 1.0. Error bars represent SD from three independent experiments. (C) Cells were transfected with siCdt2 or control siLuc for 72 h, irradiated with UV (+, 5 J/m^2) or not (−) (not shown), and 1h later fixed for staining with Cdt1 and cyclinA antibodies. (D) The frequency of Cdt1-positive (+) cells among the total cells in (C) was shown (%) (average of two independent experiments).
Double-stranded RNAs were transfected at 100 nM using Oligofectamine (Invitrogen) or HiPerFect (QIAGEN). Twenty-four hours after the first transfection, a second transfection was performed and cells were cultured for two more days. The following siRNAs were made by Dharmacon: Skp2; […], Cdt2_3′UTR; […]. The siRNA for siLuc, known as GL2, was used as a control siRNA. For Cdt1 silencing in Fig 1A and B, unsychronized HeLa cells were transfected twice with 200 nM of Cdt1 siRNA or control luciferase siRNA using Lipofectamine 2000 with a time interval of 24 h and were analysed 48 h after the second transfection. In synchronized MCF7 cells (Fig 1D), a single transfection with 200 nM of Cdt1 siRNA or control luciferase siRNA using Lipofectamine 2000 5 h after release from thymidine and before adding nocodazole was carried out. The Cdt1 siRNA was made by MWG: […].

[2] = test system: Cdt1 degradation in S/G2, U2OS cells; assay: Cdt1-positive cells among cyclin A-positive U2OS cells; conditions: siCdt2 and/or siSkp2
Description: Next, we examined Cdt1 degradation after the onset of the S phase in the Cdt2^PIP-3A-expressing cells. Cyclin A is present in the S and G2 phase, when Cdt1 should be degraded. Thus, Cdt1 should be present in cells that are negative for cyclin A, and absent in cells that are positive for cyclin A ([Nishitani et al, 2006]; [Xouri et al., 2007a], [2007b]). Cdt1 degradation after the onset of the S phase is carried out by two ubiquitin ligases, CRL1^Skp2 and CRL4^Cdt2. We depleted the substrate recognition subunits, Cdt2 and/or Skp2, by siRNA, and the percentage of Cdt1 positive cells among cyclin A–positive cells was assessed by immunofluorescence. […]
Figure 8. […] The frequency of Cdt1-positive (+) cells among cyclin A–positive (+) cells was calculated (n = 3). […] (D) Cells treated with siCdt2 or control siLuc were measured for their nuclear size (n = 200 for each), and are shown in a scatter plot. […]
For Western blotting, whole-cell lysates were prepared by lysing cell pellets directly in SDS–PAGE buffer. […] Protein levels were analysed by ImageJ software.
Double-stranded RNAs were transfected at 100 nM using Oligofectamine (Invitrogen) or HiPerFect (QIAGEN). […] For Cdt1 silencing in Fig 1A and B, unsychronized HeLa cells were transfected twice with 200 nM of Cdt1 siRNA or control luciferase siRNA using Lipofectamine 2000 with a time interval of 24 h and were analysed 48 h after the second transfection. […]

[3] = test system: chromatin-containing fraction, HEK293 cells; assay: Chromatin fractionation of Cdt2; conditions: stable HEK293, Western blot
Description: Figure 6. The Cdt2 PIP box is important for its recruitment to DNA damage sites and replication foci and for poly-ubiquitination activity. (A) HEK293 and stable Cdt2^WT or Cdt2^PIP-3A cells were locally UV irradiated, and stained for XPA and FLAG (Cdt2). XPA-positive spots were examined for FLAG signal, and its frequency was counted (%). More than 50 spots were examined. bar:10 μm. […] Bar: 10 μm. […] (D) Whole-cell extracts were prepared from HEK293 and stably transfected cells of Cdt2^WT or Cdt2^PIP-3A cells, separated into soluble (Sup) and chromatin-containing insoluble (Ppt) fractions, and were examined for indicated proteins. The asterisk indicates nonspecific bands. (E) HEK293 and stably transfected cells of Cdt2^WT or Cdt2^PIP-3A were treated with MG132 for 3 h. Whole-cell extracts (WCE) were prepared, separated into soluble (Sup) and insoluble (Ppt) fractions, and blotted with the indicated antibodies.
Cell extracts were prepared using 0.1% Triton X-100–containing mCSK buffer (200 μg of total protein in 400–800 μl). After centrifugation (17,900g for 10 min at 4°C), soluble and chromatin-containing pellet fractions were obtained. The pellets were washed with ice-cold 0.1% Triton X-100–containing mCSK buffer and subsequently suspended in SDS sample buffer.

Molecule | Cdt1 degradation after UV [1] | rescue of Cdt1 degradation in cell cycle [2] | recovery in chromatin-containing fraction [3] | Cdt1 stability after low-dose UV ([1]; siCdt2, UV 5 J/m^2, 1 h post UV)
Cdt2: Cdt2 tagged with GFP, transiently expressed in MCF7 cells | restored Cdt1 degradation to similar kinetics to that of control siRNA-transfected U2OS cells | fully complemented the depletion of Cdt2, and also the co-depletion of Skp2 | recovered in a chromatin-containing fraction | –
Cdt2^PIP-3A: Cdt2 with I709, Y712, and F713 all mutated to alanine (protein, UniProt Q9NZJ0 1-730, looked up, variant I709A Y712A F713A, FLAG tag, Cdt2 with I709, Y712, and F713 all mutated to alanine) Denticleless protein homolog: MLFNSVLRQPQLGVLRNGWSSQYPLQSLLTGYQCSGNDEHTSYGETGVPVPPFGCTFSSAPNMEHVLAVANEEGFVRLYNTESQSFRKKCFKEWMAHWNAVFDLAWVPGELKLVTAAGDQTAKFWDVKAGELIGTCKGHQCSLKSVAFSKFEKAVFCTGGRDGNIMVWDTRCNKKDGFYRQVNQISGAHNTSDKQTPSKPKKKQNSKGLAPSVDFQQSVTVVLFQDENTLVSAGAVDGIIKVWDLRKNYTAYRQEPIASKSFLYPGSSTRKLGYSSLILDSTGSTLFANCTDDNIYMFNMTGLKTSPVAIFNGHQNSTFYVKSSLSPDDQFLVSGSSDEAAYIWKVSTPWQPPTVLLGHSQEVTSVCWCPSDFTKIATCSDDNTLKIWRLNRGLEEKPGGDKLSTVGWASQKKKESRPGLVTVTSSQSTPAKAPRAKCNPSNSSPSSAACAPSCAGDLPLPSNTPTFSIKTSPAKARSPINRRGSVSSVSPKPPSSFKMSIRNWVTRTPSSSPPITPPASETKIMSPRKALIPVSQKSSQAEACSESRNRVKRRLDSSCLESVKQKCVKSCNCVTELDGQVENLHLDLCCLAGNQEDLSKDSLGPTKSSKIEGAGTSISEPPSPISPYASESCGTLPLPLRPCGEGSEMVGKENSSPENKNWLLAMAAKRKAENPSPRSPSSQTPNSRRQSGKKLPSPVTITPSSMRKACTAAHRKSQEDFCGPEHSTEL | much less effective in rescuing Cdt2 depletion | not fully rescued | undetectable | Cdt1 remained stable 1 h post UV irradiation
